This note sets out measurements from publication PMC9473612.

This test addresses EB1-mScarlet (UniProt Q9XZ57). Nature of the test: co-immunoprecipitation (mNeongreen-trap) with immunoblot quantification. Particulars: S2 cells overexpressing the constructs; n = 3 independent replicates; parent: est. 100; read off a plot.
Sequence of UniProt Q9XZ57 (Q9XZ57 entry or part of it): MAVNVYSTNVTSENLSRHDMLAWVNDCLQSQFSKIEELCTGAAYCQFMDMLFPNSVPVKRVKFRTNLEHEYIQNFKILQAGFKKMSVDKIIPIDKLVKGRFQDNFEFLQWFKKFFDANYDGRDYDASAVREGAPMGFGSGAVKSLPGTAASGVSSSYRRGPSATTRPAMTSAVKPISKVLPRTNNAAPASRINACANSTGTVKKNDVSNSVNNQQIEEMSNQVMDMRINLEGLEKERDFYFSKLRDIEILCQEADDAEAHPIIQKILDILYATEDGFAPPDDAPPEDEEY

For “mNeongreen RhoGEF2 (1–619), wild type 7A (seven serines proximal to the SKIP motif changed to A; residue numbers not printed)”, the percent of parent (% relative to WT) stood at 76.

For “mNeongreen RhoGEF2 (1–619), wild type 7E (seven serines proximal to the SKIP motif changed to E; residue numbers not printed)”, the percent of parent (% relative to WT) was found to be 56.

For the substance “mNeongreen RhoGEF2 (1–619), wild type SKIP→SKNN (I→N; P→N in the SxIP motif; residue numbers not printed)”, the percent of parent (% relative to WT) amounted to 78.
